{"source": "paper PMC7509490", "origin": "cited, not measured here", "target": "G-actin (Oryctolagus cuniculus) (UniProt P68135)"}
{"substance": "Profilin (from UniProt P07274)", "values": [{"measurement": "Kd", "result": 0.2, "unit": "µM"}]}
